Common to all, as to assay: cell-based or functional assay
Assay [1] has as its target HIV-1 Env of isolate 98IN022 (clade C) (HIV-1 isolate 98IN022).
Assay [2] has as its target HIV-1 Env of isolate APV_6, clade B, on pseudovirus (HIV-1).
The target in assay [3] is HIV-1 Env of isolate MGRM-D-004 (clade D pseudovirus) (HIV-1).
The target of assay [4] is HIV-1 Env of isolate MGRM-G-001 (HIV-1).
Assay [5] concerns the target HIV-1 Env of isolate 92UG024 (clade D pseudovirus) (HIV-1).
For assay [6], the target named is HIV-1 Env of pseudovirus MGRM-F1-018 (HIV-1).
Assay [7] deals with HIV-1 92RW020 Env (pseudovirus, clade A) (HIV-1).
Assay [8] addresses HIV-1 Env of pseudovirus MGRM-G-019 (HIV-1, clade G isolate MGRM-G-019).
The target of assay [9] is HIV-1 Env of isolate MGRM-G-011 (HIV-1).
Assay [10] concerns the target HIV-1 Env of isolate MGRM-D-020 (pseudovirus) (HIV-1).
Assay [11] concerns the target HIV-1 Env of isolate MGRM-Chronic-B-004 (subtype B pseudovirus) (HIV-1).
Assay [12] deals with HIV-1 Env of isolate MGRM-AG-009 (HIV-1).
Assay [13] deals with HIV-1 Env of isolate MGRM-D-004 (pseudovirus) (HIV-1).
Assay [14] deals with HIV-1 Env of isolate MGRM-AE-007 (HIV-1).
In assay [15] the target is HIV-1 Env of isolate MGRM-AE-008 (HIV-1).
Assay [16] concerns the target HIV-1 Env of isolate MGRM-D-024 (pseudovirus) (HIV-1).
The target of assay [17] is HIV-1 Env of isolate MGRM-D-014 (pseudovirus) (HIV-1).
The target in assay [18] is aMLV envelope (pseudovirus, negative control).
The target in assay [19] is HIV-1 Env of isolate MGRM-D-001 (pseudovirus) (HIV-1).
In assay [20] the target is HIV-1 Env of isolate MGRM-Chronic-B-003 (subtype B pseudovirus) (HIV-1).
Assay [21] concerns the target HIV-1 Env of isolate 97ZA012 (HIV-1).
For assay [22], the target named is HIV-1 Env of isolate NL43 (subtype B pseudovirus) (HIV-1).
The target of assay [23] is HIV-1 Env of isolate MGRM-F1-021 (HIV-1).
Assay [24] has as its target HIV-1 Env of isolate APV_13 (subtype B pseudovirus) (HIV-1).
The target of assay [25] is HIV-1 Env of isolate MGRM-F1-004 (pseudovirus) (HIV-1).
Assay [26] concerns the target HIV-1 APV17 Env (pseudovirus) (HIV-1).
The target of assay [27] is HIV-1 Env of isolate MG RM-D-021 (HIV-1).

Sequence of 4993_K13 (PGT-141) (antibody) (VH): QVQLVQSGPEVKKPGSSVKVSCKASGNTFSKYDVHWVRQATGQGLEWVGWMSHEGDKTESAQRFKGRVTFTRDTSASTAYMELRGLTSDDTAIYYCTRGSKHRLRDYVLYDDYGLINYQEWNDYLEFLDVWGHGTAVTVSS
Sequence of 4993_K13 (PGT-141) (antibody) (VL): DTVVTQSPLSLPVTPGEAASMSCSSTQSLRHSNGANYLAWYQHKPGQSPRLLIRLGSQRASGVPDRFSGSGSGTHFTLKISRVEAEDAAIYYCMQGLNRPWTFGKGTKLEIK
Sequence of 4970_K22 (PGT-144) (antibody) (VH): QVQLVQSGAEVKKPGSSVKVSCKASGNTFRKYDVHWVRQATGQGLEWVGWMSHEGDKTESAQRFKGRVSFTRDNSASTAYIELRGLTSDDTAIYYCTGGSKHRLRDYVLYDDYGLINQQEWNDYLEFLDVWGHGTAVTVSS
Sequence of 4970_K22 (PGT-144) (antibody) (VL): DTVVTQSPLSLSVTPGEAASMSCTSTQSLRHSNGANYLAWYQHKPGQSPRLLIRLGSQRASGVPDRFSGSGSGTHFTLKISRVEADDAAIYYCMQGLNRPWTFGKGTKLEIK
Sequence of 4980_N08 (PGT-143) (antibody) (VH): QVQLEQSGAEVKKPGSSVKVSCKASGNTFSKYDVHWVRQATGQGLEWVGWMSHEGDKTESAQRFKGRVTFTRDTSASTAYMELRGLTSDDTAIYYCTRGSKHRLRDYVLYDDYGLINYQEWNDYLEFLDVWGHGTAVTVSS
Sequence of 4980_N08 (PGT-143) (antibody) (VL): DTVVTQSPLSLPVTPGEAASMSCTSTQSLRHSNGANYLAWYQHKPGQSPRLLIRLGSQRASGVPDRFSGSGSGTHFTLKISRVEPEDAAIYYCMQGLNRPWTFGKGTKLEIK
Sequence of 4995_E20 (PGT-142) (antibody) (VH): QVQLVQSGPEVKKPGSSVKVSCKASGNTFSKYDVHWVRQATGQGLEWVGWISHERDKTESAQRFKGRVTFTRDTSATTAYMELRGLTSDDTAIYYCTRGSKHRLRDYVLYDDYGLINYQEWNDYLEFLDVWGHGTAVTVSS

Take 1496_C09 (PG9) (TCN-109) (antibody): the IC50 (µg/ml), pseudovirus neutralization in assay [1] was 0.006 µg/mL; in assay [2], 0.12 µg/mL; in assay [3] it was 0.03 µg/mL; in [5], 1.91 µg/mL; in assay [6], 0.03 µg/mL; in assay [8], 0.67 µg/mL. Further, the IC50 (µg/mL), pseudovirus neutralization in [4] was determined as 0.166 µg/mL; in assay [9] it was 0.335 µg/mL. In addition, the IC50 neutralization in assay [7] was found to be 0.161 µg/mL.

A word on the IC50: it is the point on the concentration scale where inhibition reaches its midpoint. A low value points to inhibition by little substance. For the substance 4838_L06 (PGT-121) (antibody), the IC50, pseudovirus neutralization in assay [10] was 0.01 µg/mL; in assay [13], over 50 µg/mL; in assay [16], 0.038 µg/mL; in assay [17], 0.009 µg/mL; in [19] it was 0.615 µg/mL; in [25], 1.67 µg/mL. The IC50 (µg/mL), pseudovirus neutralization is 0.009 µg/mL in assay [11]; 0.011 µg/mL in assay [20]; over 50 µg/mL in [22]; 0.099 µg/mL in assay [23]; 0.251 µg/mL in assay [24]. Besides, the IC50 is 0.08 µg/mL in assay [12], over 50 µg/mL in assay [14] and over 50 µg/mL in assay [15]. Also, the neutralization IC50 (pseudovirus) in [18] was over 10 µg/mL. The substance further registered a neutralization IC50 in assay [21] of 0.002 µg/mL.

On to 4970_K22 (PGT-144) (antibody), for which the IC50 (neutralizing activity, pseudovirus) in assay [26] was found to be 5.12 µg/mL. Also, the figures for the IC50 (µg/mL), pseudovirus neutralization in assay [4] and in assay [9] were over 50 µg/mL and 1.58 µg/mL, respectively.

In [26], 4980_N08 (PGT-143) (antibody) yielded an IC50 (neutralizing activity, pseudovirus) of 0.618 µg/mL. Also, the values for the IC50 (µg/mL), pseudovirus neutralization in assay [4] and in [9] were 0.423 µg/mL and 0.074 µg/mL, respectively.

Regarding 4993_K13 (PGT-141) (antibody), in assay [26], the IC50 (neutralizing activity, pseudovirus) was 0.616 µg/mL. Moreover, the values for the IC50 (µg/mL), pseudovirus neutralization in [4] and in assay [9] were 0.392 µg/mL and 0.086 µg/mL, respectively.

As for 4995_E20 (PGT-142) (antibody), the IC50 (neutralizing activity, pseudovirus) in assay [26] was determined as 0.393 µg/mL. Further, the results for the IC50 (µg/mL), pseudovirus neutralization in assay [4] and in assay [9] were 0.362 µg/mL and 0.046 µg/mL, respectively.

As to 5145_B14 (PGT-127) (antibody), the IC50, pseudovirus neutralization in [10] was 0.015 µg/mL; in [13], over 50 µg/mL; in [16] it was 1.95 µg/mL; in assay [17], 0.393 µg/mL; in [19], 2.23 µg/mL; in [25] it was 0.068 µg/mL. For the same substance, the IC50 (µg/mL), pseudovirus neutralization is 0.018 µg/mL in assay [11]; 0.12 µg/mL in [20]; over 50 µg/mL in assay [22]; over 50 µg/mL in assay [23]; 0.026 µg/mL in assay [24]. The IC50 in assay [12] is 0.059 µg/mL; in assay [14], over 50 µg/mL; in assay [15], over 50 µg/mL. Also, the neutralization IC50 in assay [21] was over 50 µg/mL.

Regarding PGV04 (antibody), the figures for the IC50 (µg/mL), pseudovirus neutralization in assay [4] and in assay [9] were over 50 µg/mL and 0.78 µg/mL, respectively.

As for VRC01 (antibody), the IC50 is 33.4 µg/mL in assay [27] and 0.039 µg/mL in assay [23]. Moreover, the IC50 (µg/mL), pseudovirus neutralization in assay [4] came out at 0.0371 µg/mL; in assay [9] it was 0.065 µg/mL.

Values taken from patent publication US20250320281A1.
